The target in test [1] is T1, WT-CHIPS (CHIPS 1-121), CHemotaxis Inhibitory Protein from Staphylococcus aureus (Staphylococcus aureus (strain Newman), UniProt A6QIG7 29-149).
T1 construct: mature
Briefly: flow cytometry, 3 ug/ml CHIPS-FITC on HEK-293 cells displaying the C5aR N-terminus (pDISPLAY). A general note: In flow cytometry, cells or beads pass a laser one at a time.

Test [2] has as its target T1, WT-CHIPS (CHIPS 1-121), CHemotaxis …. Briefly: flow cytometry, 3 ug/ml CHIPS-FITC on HEK-293 cells expressing FLAG-tagged C5aR (pcDNA3.1).

B1: C5aR N-terminus (first 38 amino acids of the human C5aR) displayed on HEK293 cells with the pDISPLAY vector (receptor)
chain: MNSFNYTTPDYGHYDDKDTLDLNTPVDKTSNTLRVPDI
notes: domain: transmembrane domain; also called C5aR N-terminal protein; pDISPLAY C5aR N-terminal protein
With B1, in test [1], the binding result is reported as “binds”.

B2: FLAG-tagged complete human C5aR expressed on HEK293 cells (pcDNA3.1) (receptor)
chain: MDYKDDDDKNSFNYTTPDYGHYDDKDTLDLNTPVDKTSNTLRVPDILALVIFAVVFLVGVLGNALVVWVTAFEAKRTINAIWFLNLAVADFLSCLALPILFTSIVQHHHWPFGGAACSILPSLILLNMYASILLLATISADRFLLVFKPIWCQNFRGAGLAWIACAVAWGLALLLTIPSFLYRVVREEYFPPKVLCGVDYSHDKRRERAVAIVRLVLGFLWPLLTLTICYTFILLRTWSRRATRSTKTLKVVVAVVASFFIFWLPYQVTGIMMSFLEPSSPTFLLLNKLDSLCVSFAYINCCINPIIYVVAGQGFQGRLRKSLPSLLRNVLTEESVVRESKSFTRSTVDTMAQKTQAV
notes: also called whole C5aR; complete C5aR
On to B2, for which, in test [2], the binding result was “binds”.

The values above are taken from patent US20080233137A1 (published 2008).
